In patent US20260159596A1 (published 2026) one finds Kd data, which are given here for seven molecules.

Numbering of substitutions follows the chain as printed.

Sequences and labels used below:
T1: recombinant DR3 (DR3-His tag) (human, UniProt Q93038 25-199)
T1 chain: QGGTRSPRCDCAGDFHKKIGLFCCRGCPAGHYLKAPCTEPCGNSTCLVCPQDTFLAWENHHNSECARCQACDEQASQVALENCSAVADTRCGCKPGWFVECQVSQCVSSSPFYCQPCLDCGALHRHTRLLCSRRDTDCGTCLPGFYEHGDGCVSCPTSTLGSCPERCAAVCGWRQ

B1: clone 4-4 IgG2 monoclonal antibody (antibody, V domains shown)
VH: EVQLVESGGGLVKPGGSLRLSCAASGFTFSDYYMSWIRQAPGKGLEWVSYISSSSSYTNYADSVKGRFTISRDNAKNSLYLQMNSLRAEDTAVYYCASNVDTAMVGAFDIWGQGTLVTVS
VL: DIEMTQSPSSVSASVGDTVTITCRASQHISNWLAWYQQKPGQAPKFLIYTASNLQSGVPSRFSGSGYGTDFTLTISGLQPEDFATYYCQQADSFPLTFGGGTKVDIK
B2: clone 4-4 IgG1 monoclonal antibody (antibody, V domains shown)
VH: B1 VH
VL: B1 VL
B3: anti-DR3 6-2 monoclonal antibody (antibody, V domains shown)
VH: QVQLVQSGGGLVQPGGSLRLSCAASGFTFSSYSMNWVRQAPGKGLEWVSYISSSSSTIYYADSVKGRFTISRDNAKNSLYLQMNSLRAEDTAVYYCARWDGYCSGGSCYSGMDYWGQGTLVTVS
VL: not shown
B4: anti-DR3 2-10 monoclonal antibody (antibody, V domains shown)
VH: QVQLVQSGAEVKKPGASVKVSCKASGYTFTSYGISWVRQAPGQGLEWMGWISAYNGNTNYAQKLQGRVTMTTDTSTSTAYMELRSLRSDDTAVYYCASGPDYGMLDYWGQGTLVTVS
VL: EIVMTQSPSSLPASVGDRVTITCQASQDISNYLNWYQQKPGKAPKLLIYDASNLETGVPSRFSGSGSGTDFTFTISSPQPEDIATYYCQQYDNLPLTFGGGTKVEIK
B5: anti-DR3 6-15 monoclonal antibody (antibody, V domains shown)
VH: B3 VH
VL: B4 VL with E1D, V3E, P12S, R18K, F71S, P78L
B6: anti-DR3 3-18 monoclonal antibody (antibody, V domains shown)
VH: QVQLQQSGPGLVKPSETLSLTCTVSGGSISSSSYYWGWIRQPPGKGLEWIGSIYYSGSTYYNPSLKSRVTISVDTSKNQFSLKLSSVTAADTAVYYCARQVSGPLDYWGQGTLVTVS
VL: DIVMTQSPSSLSASVGDRVTITCRASQGIRNDLGWYQQKPGKAPKLLIYAASSLQSGVPSRFSGSGSGTDFTLTISSLQPEDFATYYCLQDYNYPRTFGQGTKVEIK
B7: TL1A (tumor necrosis factor-like ligand 1A), His tag (ligand)
chain: LKGQEFAPSHQQVYAPLRADGDKPRAHLTVVRQTPTQHFKNQFPALHWEHELGLAFTKNRMNYTNKFLLIPESGDYFIYSQVTFRGMTSECSEIRQAGRPNKPDSITVVITKVTDSYPEPTQLLMGTKSVCEVGSNWFQPIYLGAMFSLQEGDKLMVNVSDISLVDYTKEDKTFFGAFLL

For this assay, the target named is T1, recombinant DR3 (DR3-His tag). As to the kind of experiment: SPR. Background: Surface plasmon resonance follows binding to a sensor surface in real time, without labels.
What is called Kd is the equilibrium constant for the complex coming apart. Turning to B1, the Kd turned out to be 35.8 nM.
Take B2: the Kd worked out at 1.56 nM.
For the molecule B3, the Kd was 3.91 nM.
Under B4 stands 0.693 nM.
On to B5, for which the Kd came out at 82.4 nM.
On to B6, for which the Kd is 0.0463 nM.
On to B7, for which the dissociation constant Kd was 426 nM.
